The target in this assay is -L1 (recombinant, BLI) (human), Q9H0R8. Kind of assay: BLI. Particulars: modification not given.
Sequence of -L1 (recombinant, BLI) (human), Q9H0R8 (Q9H0R8 whole entry): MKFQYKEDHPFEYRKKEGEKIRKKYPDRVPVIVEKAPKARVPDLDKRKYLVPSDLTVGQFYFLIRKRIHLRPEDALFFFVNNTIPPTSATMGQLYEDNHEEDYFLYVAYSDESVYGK

With NISQKSDEEDFDKVEDLPLKLTIY [PCM1 V1956D LIR peptide], the equilibrium dissociation constant (Kd) (as a rule, the constant that tells how readily two partners part at equilibrium) came to 5.2 µM.
Then NISQKSDEEDFVKIEDLPLKLTIY [PCM1 V1958I LIR peptide], with 1.1 µM.

For the origin of these results see PMC6499816, “Molecular determinants regulating selective binding of autophagy adapters and receptors to ATG8 proteins” (Nature Communications, 2019).
